{"source": "patent US11389485", "binders": {"B1": {"name": "gemtuzumab ozogamicin (antibody, INN chains, looked up, V domains shown)", "VH": "EVQLVQSGAEVKKPGSSVKVSCKASGYTITDSNIHWVRQAPGQSLEWIGYIYPYNGGTDYNQKFKNRATLTVDNPTNTAYMELSSLRSEDTAFYYCVNGNPWLAYWGQGTLVTVSS", "VL": "DIQLTQSPSTLSASVGDRVTITCRASESLDNYGIRFLTWFQQKPGKAPKLLMYAASNQGSGVPSRFSGSGSGTEFTLTISSLQPDDFATYYCQQTKEVPWSFGQGTKVEVKR", "modifications": "ozogamicin (calicheamicin) conjugate"}}, "key": {"[1]": {"target": "human CD33, full-length (CD33M) (human) (UniProt P20138)", "experiment": "cell-based or functional assay"}, "[2]": {"target": "CD33 variant having the fragment encoded by exon 2 deleted (CD33ex2) (human) (UniProt P20138)", "experiment": "cell-based or functional assay"}}, "data": [{"binder": "B1", "values": [{"measurement": "IC50 of GO cytotoxicity (viable cell number, Celltiter Glo, 72 h), HL-60 cells", "setting": "[1]", "result": 35.5, "unit": "ng/mL"}, {"measurement": "IC50 of GO cytotoxicity (viable cell number, Celltiter Glo, 72 h), THP-1 cells", "setting": "[1]", "result": 16.3, "unit": "ng/mL"}, {"measurement": "IC50 of GO cytotoxicity, wild-type HSPC", "setting": "[1]", "result": 93.4, "unit": "ng/mL"}, {"measurement": "IC50 of GO cytotoxicity, HSPC CD33ex2", "setting": "[2]", "result": 246, "unit": "ng/mL"}]}]}
